Test results published in paper PMC7855469.

Biological target: radial spoke protein 9 (RSP9) (C. reinhardtii)
Test: cryo-EM structure

With “radial spoke protein 9 (RSP9) (natural protein)” the stoichiometry N was 2.
